Bridge positions count the residues as written; N and C are the ends. Square brackets hold non-standard residues; d marks the D form. Ends that are not written are not given here. βAla = NCCC(=O)O
Columns and labels:
[1] = molecular target: T1, EphA4 Fc (human EphA4 Fc, #CJ75, Novoprotein, or mouse EphA4 Fc, #641-A4, R&D Systems/BioTechne) (human or mouse, UniProt P54764 20-547); test: competition ELISA, inhibition of ephrin-A5 AP binding to immobilized EphA4 Fc
T1 construct: extracellular domain; bought reagents; also called EphA4 extracellular domain fused to the Fc portion of an antibody; not shown: Fc portion of an antibody

[2] = molecular target: T1, EphA4 Fc (human EphA4 Fc, #CJ75, …); test: competition ELISA, inhibition of ephrin-A5 AP binding to immobilized EphA4 Fc, with serum albumin (40 mg/mL HSA by the text; the cell has no footnote)
[3] = molecular target: T1, EphA4 Fc (human EphA4 Fc, #CJ75, …); test: competition ELISA, ephrin-A5 AP on immobilized EphA4 Fc, same experiments
[4] = molecular target: T1, EphA4 Fc (human EphA4 Fc, #CJ75, …); test: competition ELISA, inhibition of ephrin-A5 AP binding to immobilized EphA4 Fc; 0 time point, compound diluted in mouse plasma in vitro (apparent IC50)
[5] = molecular target: T1, EphA4 Fc (human EphA4 Fc, #CJ75, …); test: competition ELISA, inhibition of ephrin-A5 AP binding to immobilized EphA4 Fc, with 20 mg/ml BSA
[6] = molecular target: T1, EphA4 Fc (human EphA4 Fc, #CJ75, …); test: competition ELISA, ephrin-A5 AP on immobilized EphA4 Fc, with and without 20 mg/mL BSA

T1 sequence (P54764 20-547): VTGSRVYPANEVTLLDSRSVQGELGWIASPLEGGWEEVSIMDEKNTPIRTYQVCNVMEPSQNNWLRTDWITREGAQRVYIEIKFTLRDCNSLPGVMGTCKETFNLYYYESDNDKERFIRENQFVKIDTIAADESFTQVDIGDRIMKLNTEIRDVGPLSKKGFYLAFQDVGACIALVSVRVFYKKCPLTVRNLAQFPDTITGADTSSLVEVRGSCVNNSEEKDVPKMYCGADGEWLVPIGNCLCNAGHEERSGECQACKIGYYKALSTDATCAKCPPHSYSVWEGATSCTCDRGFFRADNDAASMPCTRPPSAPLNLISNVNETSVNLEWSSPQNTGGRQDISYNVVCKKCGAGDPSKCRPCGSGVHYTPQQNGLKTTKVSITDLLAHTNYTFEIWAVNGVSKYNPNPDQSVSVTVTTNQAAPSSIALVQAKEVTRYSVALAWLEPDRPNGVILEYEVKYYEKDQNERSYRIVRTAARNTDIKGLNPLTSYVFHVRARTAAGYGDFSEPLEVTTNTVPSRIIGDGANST

Binder | IC50 [1] [nM] | IC50 [2] [nM] | fold decrease in potency (IC50) against APY-d2 [3] [fold] | IC50 [4] [nM] | IC50 [5] [nM] | fold decrease in potency with BSA against buffer [6] [fold]
APYCVYK[βAla]SWSC-NH2 (disulfide 4-12; N-terminus assumed; SMILES CC(C)[C@@H]1NC(=O)[C@@H](NC(=O)[C@H](Cc2ccc(O)cc2)NC(=O)[C@@H]2CCCN2C(=O)[C@H](C)N)CSSC[C@@H](C(N)=O)NC(=O)[C@H](CO)NC(=O)[C@H](Cc2c[nH]c3ccccc23)NC(=O)[C@H](CO)NC(=O)CCNC(=O)[C@H](CCCCN)NC(=O)[C@H](Cc2ccc(O)cc2)NC1=O, also called peptide 1; APYCVYKβASWSC-NH2) [compound 1] | 67 | 55 | ~2 | – | – | –
XPYCVYRXSWSCGGKG (β-alanine at 1 and 8; lauroyl-γ-glutamic acid on the side chain of the Lys of the C-terminal GGKG; C-terminal amide; disulfide bond Cys4-Cys12 (cyclic), also called peptide 14) [compound 14] | – | – | – | 81 | – | –
[βAla]PYCVYR[βAla]SWSCRLIEDICLPRWGCLWEDD-NH2 (disulfide 4-12, 19-25; N-terminus assumed; SMILES CC[C@H](C)[C@H](NC(=O)[C@H](CC(C)C)NC(=O)[C@H](CCCNC(=N)N)NC(=O)[C@@H]1CSSC[C@H](NC(=O)[C@H](Cc2ccc(O)cc2)NC(=O)[C@@H]2CCCN2C(=O)CCN)C(=O)N[C@@H](C(C)C)C(=O)N[C@@H](Cc2ccc(O)cc2)C(=O)N[C@@H](CCCNC(=N)N)C(=O)NCCC(=O)N[C@@H](CO)C(=O)N[C@@H](Cc2c[nH]c3ccccc23)C(=O)N[C@@H](CO)C(=O)N1)C(=O)N[C@@H](CCC(=O)O)C(=O)N[C@@H](CC(=O)O)C(=O)N[C@H](C(=O)N[C@H]1CSSC[C@@H](C(=O)N[C@@H](CC(C)C)C(=O)N[C@@H](Cc2c[nH]c3ccccc23)C(=O)N[C@@H](CCC(=O)O)C(=O)N[C@@H](CC(=O)O)C(=O)N[C@@H](CC(=O)O)C(N)=O)NC(=O)CNC(=O)[C@H](Cc2c[nH]c3ccccc23)NC(=O)[C@H](CCCNC(=N)N)NC(=O)[C@@H]2CCCN2C(=O)[C@H](CC(C)C)NC1=O)[C@@H](C)CC, also called peptide 21) [compound 21] | 18 | – | – | – | 130 | ~8

— patent US20260139007A1 (SANFORD BURNHAM PREBYS MEDICAL DISCOVERY INSTITUTE, published 2026)
